In patent publication US10106589B2, “Compositions and methods for immunomodulation” (FUNDACIO INSTITUT D'INVESTIGACIO BIOMEDICA DE BELLVITGE …, priority 2011, dated 2018):

B1: C4BP α7β1: major C4BP isoform, 7 identical α-chains and 1 β-chain, purified from pooled human plasma (protein, UniProt P04003 49-597; P20851 18-252, looked up)
C4b-binding protein alpha …: NCGPPPTLSFAAPMDITLTETRFKTGTTLKYTCLPGYVRSHSTQTLTCNSDGEWVYNTFCIYKRCRHPGELRNGQVEIKTDLSFGSQIEFSCSEGFFLIGSTTSRCEVQDRGVGWSHPLPQCEIVKCKPPPDIRNGRHSGEENFYAYGFSVTYSCDPRFSLLGHASISCTVENETIGVWRPSPPTCEKITCRKPDVSHGEMVSGFGPIYNYKDTIVFKCQKGFVLRGSSVIHCDADSKWNPSPPACEPNSCINLPDIPHASWETYPRPTKEDVYVVGTVLRYRCHPGYKPTTDEPTTVICQKNLRWTPYQGCEALCCPEPKLNNGEITQHRKSRPANHCVYFYGDEISFSCHETSRFSAICQGDGTWSPRTPSCGDICNFPPKIAHGHYKQSSSYSFFKEEIIYECDKGYILVGQAKLSCSYSHWSAPAPQCKALCRKPELVNGRLSVDKDQYVEPENVTIQCDSGYGVVGPQSITCSGNRTWYPEVPKCEWETPEGCEQVLTGKRLMQCLPNPEDVKMALEVYKLSLEIEQLELQRDSARQSTLDKEL
C4b-binding protein beta chain: SDAEHCPELPPVDNSIFVAKEVEGQILGTYVCIKGYHLVGKKTLFCNASKEWDNTTTECRLGHCPDPVLVNGEFSSSGPVNVSDKITFMCNDHYILKGSNRSQCLEDHTWAPPFPICKSRDCDPPGNPVHGYFEGNNFTLGSTISYYCEDRYYLVGVQEQQCVDGEWSSALPVCKLIQEAPKPECEKALLAFQESKNLCEAMENFMQQLKESGMTMEELKYSLELKKAELKAKLL
B2: C4BP (β^−): C4BP isoforms lacking beta chain: C4BP (α7β0) or C4BP (α6β0) (protein, UniProt P04003 49-597, looked up)
C4b-binding protein alpha …: B1 C4b-binding protein alpha …

Columns and labels:
human Mo-DCs [1] = assay: Chemotaxis transwell assay towards CCL21; assay type: cell-based; parameters: key to Chemotaxis (CCL21): (−) negligible; (+) low; (++) moderate; (+++) high; conditions: for migration of LPS-matured Mo-DCs towards the chemokine CCL21: transwell, 2 h
Experimental: Mo-DCs differentiated and matured (LPS for 48 h) in presence of the C4BP isoforms α7β1, α7β0, or Factor H, were tested for migration toward the CCL21 chemokine using transwell assays. Briefly, the lower chambers of transwell plates (polycarbonate filters of 8.0 μm pore size; Costar, Corning, N.Y.) were filled with 400 μl of complete RPMI with or without CCL21 (200 ng/ml). A total of 1×10^5 DCs in 100 μl of complete RPMI were added into the upper chamber, and cells were incubated at 37° C. for 2 h. Cells migrated into the lower chambers were harvested and counted with a FACScalibur flow cytometer acquiring events for a fixed time period of 2 min using CellQuest software (Becton Dickinson). The migration assays for all stimulation conditions were performed in duplicate wells. Values are given as percentage of migrated cells relative to the untreated, mDCs (100%).

human Mo-DCs [2] = assay: Scanning electron microscopy of Mo-DC surface morphology; assay type: cell-based; parameters: key to Dendrite density and lenght: (−) negligible; (+) low; (++) moderate; (+++) high
Experimental: Monocytes were seeded on glass slides covered with either poly-L-lysine (25 μg/ml) or fibronectin (42 μg/ml), cultured for 5 days in complete RPMI medium supplemented with 800 U/ml GM-CSF, 500 U/ml IL-4, and the C4BP isoforms α7β1, α7β0, or Factor H (10 μg/ml), and further stimulated with LPS for 48 hours in the same medium. The resulting DCs were fixed in 1% paraformaldehyde and 1.25% glutaraldehyde in cacodylate buffer for 2 h. Finally, the cells were post-fixed in 1% OsO4, and dehydrated with graded series of ethanol followed by acetone. After dehydration the cells were dried in a critical-point dryer and coated with gold before observation by scanning electron microscopy (Zeiss DSM940A).

human Mo-DCs [3] = assay: Flow cytometry of cell surface markers on treated, LPS-matured Mo-DCs; assay type: cell-based; parameters: key to HLA-DR / CD40 / CD83 / CD86 / CD14 / CD1a / CCR7: (−) negligible; (+) low; (++) moderate; (+++) high
Experimental: Peripheral blood mononuclear cells (PBMCs) were obtained from buffy coat preparations belonging to healthy donors from the Blood and Tissue Bank (Barcelona, Spain) after Ficoll-Paque™ density centrifugation (GE Healthcare Bio-Sciences AB; Uppsala, Sweden). Monocytes were purified by two different methods: 1) Cells were plated at 1×10^6 cells/ml in 60 mm culture plates (Corning, Spain) in RPMI without serum and allowed to adhere for 2 h at 37° C. in 5% CO2. The non-adherent cells were removed by washing in PBS. […] 2) Cells were purified using colloidal super-paramagnetic microbeads conjugated with monoclonal mouse anti-human CD14 antibodies (MACS, Miltenyi Biotec, Auburn, Calif., or EasySep® Positive Selection Cocktail, StemCell Technologies, Grenoble, France). The purity of CD14^+ cells was tested by CD14 staining and flow cytometry analysis (>90% CD14^+ cells). Monocyte-derived DCs (Mo-DCs) were generated supplementing the monocyte cultures with complete RPMI 1640 medium plus GM-CSF (800 UI/ml) and IL-4 (500 UI/ml) (both from Gentaur, Kampenhout, Belgium) at day 0 and day 3 of culture. For DC maturation, at day 5 iDCs were further stimulated for 48 h with 5 μg/ml LPS (Escherichia coli 055.B5, Sigma L2880, Copenhagen, Denmark).
Cell surface phenotypes were analyzed using the following monoclonal antibodies: FITC-conjugated anti-HLA-DR (Immu-357), FITC-conjugated anti-CD83 (HB15a), FITC-conjugated anti-CD14 (RMO52), PE-conjugated anti-CD40 (MAB89), PE-conjugated anti-CD1a (BL6), PE-conjugated anti-CD80 (MAB104), PE-conjugated anti-CD86 (HA5.2B7) (all from Beckman-Coulter), Alexa Fluor 488-conjugated anti-CCR7 (TG8/CCR7, Biolegend, San Diego, Calif.), and the respective isotype controls from the same commercial sources. After washing with PBS, cells were subsequently stained with 3 μl MoAb/10^5 cells in 100 μl of FACS buffer (PBS containing 1% BSA and 0.1% sodium azide) for 20 min at room temp. Stained cells were analysed using a FACScalibur (Becton Dickinson). Mo-DCs were gated according to forward scatter (FSC) and side scatter (SSC) parameters. The results were analysed using CellQuestPro software (Becton Dickinson).
Both the different C4BP isoforms (α7β1, α7β0 and α6β0), and Factor H were added at 2, 5 and 10 μg/ml throughout Mo-DC differentiation, maturation, or both. Namely, for the differentiation assays the proteins were added at day 0 and replenished at day 3. For the maturation assays the proteins were added at day 5, either alone or combined with LPS. Finally, for the differentiation plus maturation assays the proteins were added at days 0, 3 and 5 (at the last time point, combined with LPS).

immature Mo-DCs = assay: Endocytic activity (DQ-OVA uptake); assay type: cell-based, human; parameters: key: (−) negligible; (+) low; (++) moderate; (+++) high; conditions: functional assay
Experimental: To measure the phagocytic activity of iDCs, 2×10^5 cells/ml were resuspended in 100 μl of PBS and incubated with 4 μl of BODIPY FL-conjugated DQ-Ovalbumin (1 mg/ml, DQ-OVA, Molecular Probes, Leiden, Netherlands) at 37° C. or at 0° C. for 15 min. The incubations were stopped by adding 1 ml of cold FACS buffer. The cells were washed two times with cold FACS buffer and their fluorescence analyzed using a FACScalibur flow cytometer (Becton-Dickinson).

human Mo-DCs [4] = assay: Apoptosis determination (Annexin V / 7-ADD); assay type: cell-based; parameters: key: (−) negligible; (+) low; (++) moderate; (+++) high; conditions: viability; treated and LPS-induced DCs
From the text: Double staining using with the fluorescent dyes Annexin V (Annexin V-PE Apoptosis Detection Kit I, BD Pharmigen, San Diego, Calif.) and 7-amino-actinomycin D (7-ADD) (BD Pharmigen), and flow cytometry analysis, was employed to assess the viability/apoptosis status of C4BP α7β1-, C4BP α7β0-, recC4BP α6β0-, or Factor H-treated and untreated Mo-DCs.

[5] = surface marker, treated and LPS-induced DCs
[6] = treated throughout differentiation and maturation, LPS-matured

| Molecule | migration of LPS-matured Mo-DCs towards the chemokine CCL21 (human Mo-DCs [1]) | surface morphology of Mo-DCs (human Mo-DCs [2]; SEM after 48 h LPS maturation) | expression of surface markers (CD14, HLA-DR, CD40, CD80, CD83, CD86, CD1a) (human Mo-DCs [3]; treated throughout differentiation and maturation, LPS-matured, vs untreated mDC) | Chemotaxis (CCL21) (human Mo-DCs [1]; functional assay, treated and LPS-induced DCs) | Endocytosis (DQ-OVA) (immature Mo-DCs) | Dendrite density and lenght (human Mo-DCs [2]; morphology, treated and LPS-induced DCs) | surface receptor CCR7 on Mo-DCs (human Mo-DCs [3]; flow cytometry (MFI), LPS-matured) | CCR7 (human Mo-DCs [3]; [5]) | CD1a (human Mo-DCs [3]; [5]) | CD14 (human Mo-DCs [3]; [5]) | CD40 (human Mo-DCs [3]; [5]) | CD83 (human Mo-DCs [3]; [5]) | CD86 (human Mo-DCs [3]; [5]) | HLA-DR (human Mo-DCs [3]; [5]) | CD40 expression (human Mo-DCs [3]; [6]) | HLA-DR expression (human Mo-DCs [3]; [6]) | Apoptosis after treatment (human Mo-DCs [4]) |
| --- | --- | --- | --- | --- | --- | --- | --- | --- | --- | --- | --- | --- | --- | --- | --- | --- | --- |
| B1 | maximal migration | analogous appearance than untreated Mo-DCs | no effect |  |  |  |  |  |  |  |  |  |  |  |  |  |  |
| B2 | halted the migration |  |  | − | + | + | consistent down-regulation | ++ | + | + | ++ | + | + | +++ | unaltered | unaltered | − |
